In the RNAGym collection of RNA variant scans (doi:10.7554/elife.80360):

B1: HDV Ribozyme (parent)
chain: GGCCGGCAUGGUCCCAGCCUCCUCGCUGGCGCCGGCUGGGCAACAUUCCGAGGGGACCGUCCCCUCGGUAAUGGCGAAUGGGACCCA

Variants of: B1
Test: self-cleavage, relative activity (ratio to wild type); higher = more cleavage; co-transcriptional

Row | Variant | self-cleavage
1 | GGCCGGCAUGGUCCCAGCCUCCUCGCUGGCGCCGGCUGGGCAACAUUCCGAGGGGACCGUCCCCUAGUUAAUGGCGAAUGGGACCCA | 0.616
2 | GGCCGGCAUGGUCCCAGCCUCCUCGCUGGCGCCGGCUGGGCAACAUUCCGAGGGGACCGUCCCCCCGGUAAUGGCGAAUGGGACCUA | 0.516
3 | GGCCGGCAUGGUCCCAGCCUCCUCGCUGGCGCCGGCUGGGCAACAUUCCGAGGGGACCGUCCCCACGUUAAUGGCGAAUGGGACCCA | 0.87
4 | GGCCGGCAUGGUCCCAGCCUCCUCGCUGGCGCCGGCUGGGCAACAUUCCGAGGGGACCGUCCCCCCGGUAAUGGCGAAUGGCACCCA | 0.252
5 | GGCCGGCAUGGUCCCAGCCUCCUCGCUGGCGCCGGCUGGGCAACAUUCCGAGGGGACCGUCCCCCCGGUAGUGGCGAAUGGGACCCA | 0.935
6 | GGCCGGCAUGGUCCCAGCCUCCUCGCUGGCGCCGGCUGGGCAACAUUCCGAGGGGACCGUCCCCGCGGUAAUGGCGAAUGGAACCCA | 0.162
7 | GGCCGGCAUGGUCCCAGCCUCCUCGCUGGCGCCGGCUGGGCAACAUUCCGAGGGGACCGUCCCUUCGGUAAUGGCGAAUUGGACCCA | 0.247
8 | GGCCGGCAUGGUCCCAGCCUCCUCGCUGGCGCCGGCUGGGCAACAUUCCGAGGGGACCGUCCCCGCGUUAAUGGCGAAUGGGACCCA | 0.491
9 | GGCCGGCAUGGUCCCAGCCUCCUCGCUGGCGCCGGCUGGGCAACAUUCCGAGGGGACCGUCCCCGCGCUAAUGGCGAAUGGGACCCA | 0.673
10 | GGCCGGCAUGGUCCCAGCCUCCUCGCUGGCGCCGGCUGGGCAACAUUCCGAGGGGACCGUCCCCACGGUAAUGGCGAAUGCGACCCA | 0.502
11 | GGCCGGCAUGGUCCCAGCCUCCUCGCUGGCGCCGGCUGGGCAACAUUCCGAGGGGACCGUCCCCACGGUAAUGGCGAAUGUGACCCA | 0.353
12 | GGCCGGCAUGGUCCCAGCCUCCUCGCUGGCGCCGGCUGGGCAACAUUCCGAGGGGACCGUCCCUUCGGUAAUGGCGAAAGGGACCCA | 0.597
13 | GGCCGGCAUGGUCCCAGCCUCCUCGCUGGCGCCGGCUGGGCAACAUUCCGAGGGGACCGUCCCCGCGGUAAUGGCGAAUUGGACCCA | 0.261
14 | GGCCGGCAUGGUCCCAGCCUCCUCGCUGGCGCCGGCUGGGCAACAUUCCGAGGGGACCGUCCCCGCGGUAAUGGCGAAUGGGACUCA | 0.831
15 | GGCCGGCAUGGUCCCAGCCUCCUCGCUGGCGCCGGCUGGGCAACAUUCCGAGGGGACCGUCCCCGCGGUAAUGGCGAAUGGGACGCA | 0.692
16 | GGCCGGCAUGGUCCCAGCCUCCUCGCUGGCGCCGGCUGGGCAACAUUCCGAGGGGACCGUCCCCCCGGUAAUGGCGAAUGGGCCCCA | 0.867

Row | Variant | self-cleavage
17 | GGCCGGCAUGGUCCCAGCCUCCUCGCUGGCGCCGGCUGGGCAACAUUCCGAGGGGACCGUCCCCGCGGUAAGGGCGAAUGGGACCCA | 0.748
18 | GGCCGGCAUGGUCCCAGCCUCCUCGCUGGCGCCGGCUGGGCAACAUUCCGAGGGGACCGUCCCUUCGGUAAAGGCGAAUGGGACCCA | 0.567
19 | GGCCGGCAUGGUCCCAGCCUCCUCGCUGGCGCCGGCUGGGCAACAUUCCGAGGGGACCGUCCCCCCGGUAAUGGCGAAUGCGACCCA | 0.227
20 | GGCCGGCAUGGUCCCAGCCUCCUCGCUGGCGCCGGCUGGGCAACAUUCCGAGGGGACCGUCCCCGCGGUAAUGGCGAUUGGGACCCA | 0.569
21 | GGCCGGCAUGGUCCCAGCCUCCUCGCUGGCGCCGGCUGGGCAACAUUCCGAGGGGACCGUCCCCGCGGUAAUGGCGAAUGGGACCUA | 0.966
22 | GGCCGGCAUGGUCCCAGCCUCCUCGCUGGCGCCGGCUGGGCAACAUUCCGAGGGGACCGUCCCCGCGGUAAUGGCGAAUGGGACCCU | 1.12
23 | GGCCGGCAUGGUCCCAGCCUCCUCGCUGGCGCCGGCUGGGCAACAUUCCGAGGGGACCGUCCCCGCGGUAAUGGCUAAUGGGACCCA | 0.966
24 | GGCCGGCAUGGUCCCAGCCUCCUCGCUGGCGCCGGCUGGGCAACAUUCCGAGGGGACCGUCCCCACGGUAAUGGCCAAUGGGACCCA | 1.11
25 | GGCCGGCAUGGUCCCAGCCUCCUCGCUGGCGCCGGCUGGGCAACAUUCCGAGGGGACCGUCCCCACGGUAAUGGAGAAUGGGACCCA | 0.185
26 | GGCCGGCAUGGUCCCAGCCUCCUCGCUGGCGCCGGCUGGGCAACAUUCCGAGGGGACCGUCCCUUCGGAAAUGGCGAAUGGGACCCA | 1.02
27 | GGCCGGCAUGGUCCCAGCCUCCUCGCUGGCGCCGGCUGGGCAACAUUCCGAGGGGACCGUCCCCCCGGUAAUGGCGAAUGGGACGCA | 0.807
28 | GGCCGGCAUGGUCCCAGCCUCCUCGCUGGCGCCGGCUGGGCAACAUUCCGAGGGGACCGUCCCCCCGGUAAUGGCGAAUGGGACUCA | 0.997
29 | GGCCGGCAUGGUCCCAGCCUCCUCGCUGGCGCCGGCUGGGCAACAUUCCGAGGGGACCGUCCCCACGGUAAUGUCGAAUGGGACCCA | 0.428
30 | GGCCGGCAUGGUCCCAGCCUCCUCGCUGGCGCCGGCUGGGCAACAUUCCGAGGGGACCGUCCCCUAGGUAUUGGCGAAUGGGACCCA | 0.692
31 | GGCCGGCAUGGUCCCAGCCUCCUCGCUGGCGCCGGCUGGGCAACAUUCCGAGGGGACCGUCCCCGCGGUCAUGGCGAAUGGGACCCA | 0.601
32 | GGCCGGCAUGGUCCCAGCCUCCUCGCUGGCGCCGGCUGGGCAACAUUCCGAGGGGACCGUCCCCACGGUAACGGCGAAUGGGACCCA | 0.511
